Assay results from publication PMC3764422, “A model of yeast glycolysis based on a consistent kinetic characterisation of all its enzymes” (Febs Letters, 2013).

What was measured:
Assay in all cases: purified protein
Type in all cases: biochemical, Saccharomyces cerevisiae
[1] = substrate: CC=O; settings: standardised reaction buffer, 30 °C, co-substrate NADH
[2] = substrate: O=C(CO)COP(=O)(O)O; settings: standardised reaction buffer, 30 °C, measured in-house, also reported in Mendes et al. [42]
[3] = substrate: Nc1ncnc2c1ncn2[C@@H]1O[C@H](COP(=O)(O)OP(=O)(O)OP(=O)(O)O)[C@@H](O)[C@H]1O; settings: standardised reaction buffer, 30 °C
[4] = substrate: C=C(OP(=O)(O)O)C(=O)O; settings: standardised reaction buffer, 30 °C, co-substrate ADP
[5] = substrate: O=C(O)[C@H](O)COP(=O)(O)O; settings: standardised reaction buffer, 30 °C, product PEP
[6] = substrate: O=C(O)[C@@H](CO)OP(=O)(O)O; settings: standardised reaction buffer, 30 °C

B1: Adh1p (Saccharomyces cerevisiae S288C) (protein)
chain: SIPETQKGVIFYESHGKLEYKDIPVPKPKANELLINVKYSGVCHTDLHAWHGDWPLPVKLPLVGGHEGAGVVVGMGENVKGWKIGDYAGIKWLNGSCMACEYCELGNESNCPHADLSGYTHDGSFQQYATADAVQAAHIPQGTDLAQVAPILCAGITVYKALKSANLMAGHWVAISGAAGGLGSLAVQYAKAMGYRVLGIDGGEGKEELFRSIGGEVFIDFTKEKDIVGAVLKATDGGAHGVINVSVSEAAIEASTRYVRANGTTVLVGMPAGAKCCSDVFNQVVKSISIVGSYVGNRADTREALDFFARGLVKSPIKVVGLSTLPEIYEKMEKGQIVGRYVVDTSK
notes: tagged full-length ORF, expressed in and purified from S. cerevisiae
[1]
  Km: 0.462 (SEM 5.3%) mM
  kcat: 176 s⁻¹

B2: Tpi1p (Saccharomyces cerevisiae S288C) (protein)
chain: ARTFFVGGNFKLNGSKQSIKEIVERLNTASIPENVEVVICPPATYLDYSVSLVKKPQVTVGAQNAYLKASGAFTGENSVDQIKDVGAKWVILGHSERRSYFHEDDKFIADKTKFALGQGVGVILCIGETLEEKKAGKTLDVVERQLNAVLEEVKDWTNVVVAYEPVWAIGTGLAATPEDAQDIHASIRKFLASKLGDKAASELRILYGGSANGSNAVTFKDKADVDGFLVGGASLKPEFVDIINSRN
notes: as for B1
[2]
  Km: 6.45 (SEM 5%) mM

B3: Glk1p (Saccharomyces cerevisiae S288C) (protein)
chain: SFDDLHKATERAVIQAVDQICDDFEVTPEKLDELTAYFIEQMEKGLAPPKEGHTLASDKGLPMIPAFVTGSPNGTERGVLLAADLGGTNFRICSVNLHGDHTFSMEQMKSKIPDDLLDDENVTSDDLFGFLARRTLAFMKKYHPDELAKGKDAKPMKLGFTFSYPVDQTSLNSGTLIRWTKGFRIADTVGKDVVQLYQEQLSAQGMPMIKVVALTNDTVGTYLSHCYTSDNTDSMTSGEISEPVIGCIFGTGTNGCYMEEINKITKLPQELRDKLIKEGKTHMIINVEWGSFDNELKHLPTTKYDVVIDQKLSTNPGFHLFEKRVSGMFLGEVLRNILVDLHSQGLLLQQYRSKEQLPRHLTTPFQLSSEVLSHIEIDDSTGLRETELSLLQSLRLPTTPTERVQIQKLVRAISRRSAYLAAVPLAAILIKTNALNKRYHGEVEIGCDGSVVEYYPGFRSMLRHALALSPLGAEGERKVHLKIAKDGSGVGAALCALVA
notes: tagged full-length ORF (mostly C-terminal tag, yeast ORF/GST/TAP collections), expressed in and purified from S. cerevisiae
[3]
  Km: 0.865 mM
  kcat: 0.0721 s⁻¹

B4: Cdc19p (Saccharomyces cerevisiae S288C) (protein)
chain: SRLERLTSLNVVAGSDLRRTSIIGTIGPKTNNPETLVALRKAGLNIVRMNFSHGSYEYHKSVIDNARKSEELYPGRPLAIALDTKGPEIRTGTTTNDVDYPIPPNHEMIFTTDDKYAKACDDKIMYVDYKNITKVISAGRIIYVDDGVLSFQVLEVVDDKTLKVKALNAGKICSHKGVNLPGTDVDLPALSEKDKEDLRFGVKNGVHMVFASFIRTANDVLTIREVLGEQGKDVKIIVKIENQQGVNNFDEILKVTDGVMVARGDLGIEIPAPEVLAVQKKLIAKSNLAGKPVICATQMLESMTYNPRPTRAEVSDVGNAILDGADCVMLSGETAKGNYPINAVTTMAETAVIAEQAIAYLPNYDDMRNCTPKPTSTTETVAASAVAAVFEQKAKAIIVLSTSGTTPRLVSKYRPNCPIILVTRCPRAARFSHLYRGVFPFVFEKEPVSDWTDDVEARINFGIEKAKEFGILKKGDTYVSIQGFKAGAGHSNTLQVSTV
notes: as for B1
[4]
  Km: 0.281 (SEM 12%) mM
  kcat: 20.1 s⁻¹

B5: Eno1p (Saccharomyces cerevisiae S288C) (protein)
chain: AVSKVYARSVYDSRGNPTVEVELTTEKGVFRSIVPSGASTGVHEALEMRDGDKSKWMGKGVLHAVKNVNDVIAPAFVKANIDVKDQKAVDDFLISLDGTANKSKLGANAILGVSLAASRAAAAEKNVPLYKHLADLSKSKTSPYVLPVPFLNVLNGGSHAGGALALQEFMIAPTGAKTFAEALRIGSEVYHNLKSLTKKRYGASAGNVGDEGGVAPNIQTAEEALDLIVDAIKAAGHDGKIKIGLDCASSEFFKDGKYDLDFKNPNSDKSKWLTGPQLADLYHSLMKRYPIVSIEDPFAEDDWEAWSHFFKTAGIQIVADDLTVTNPKRIATAIEKKAADALLLKVNQIGTLSESIKAAQDSFAAGWGVMVSHRSGETEDTFIADLVVGLRTGQIKTGAPARSERLAKLNQLLRIEEELGDNAVFAGENFHHGDKL
notes: tagged full-length ORF, expressed in and purified from S. cerevisiae, assayed immediately after purification
[5]
  kcat: 5.07 s⁻¹
[6]
  Km: 0.043 (SEM 10%) mM
  kcat: 7.6 s⁻¹
